Assay results: patent US20070031417A1 (UNIVERSITY OF MASSACHUSETTS, published 2007)

B1: DRH-2 (enzyme)
chain: MIVNLCNEHRDPLDDEYPPEQFFLSTFTIIFFDECHNTVKNSPYSNVMREYHYLKNMGNMPEGHSFPQIIGLTASLGTGDKKNCMQVRSYIAGLCANMDVKELSIVKDNLEELLDHNPFVTDQVSFCERSNDGPIEMFTKRLKQMMQEVEDLIRTTLKNEPTVKYEIPPTDKEHNRYENWISNQRNCVSLAGSRNKTLIIEVLDVLKDCFYALSYNINFNPEVALKKYLEKELGPERIRNFTDNMNLIWDNCHRELVGIGSAENPMIARTVQFILDQNEQTSDFRAIIFVRTKKEADFLNYVLNDRLHELGIKSDWMSGQKKSTASSADISASKQKQMEKLKMFADGENQILVSTSVAEEGLDIPECSLVIKYNYATNETAHVQRRGRARARNSKCVLITNSIALHVQESNNLAKENLMTETISLIQNSPGEFRQCVDEESNKVWPRIQREDTDKAQRIKEQINRNIVYKIVCMKCDTVLCTNKDIRSKNTQYIVCNPGFWSLVRRIPLPLEQRASNKFNSTGSIECLGERCGSKLGQLIDVNTVNLPCLKVKSILLLIESTNERILVKQWKNILDEHFTPTTLKQRDVQTMKDADYGRAPIEFEHHTANGEVINVIRQA
notes: Endogenous protein from C. elegans extract; also called C01B10.1; Dicer-Related Helicase
B2: RDE-4 (other)
chain: MDLTKLTFESVFGGSDVPMKPSRSEDNKTPRNRTDLEMFLKKTPLMVLEEAAKAVYQKTPTWGTVELPEGFEMTLILNEITVKGQATSKKAARQKAAVEYLRKVVEKGKHEIFFIPGTTKEEALSNIDQISDKAEELKRSTSDAVQDNDNDDSIPTSAEFPPGISPTENWVGKLQEKSQKSKLQAPIYEDSKNERTERFLVICTMCNQKTRGIRSKKKDAKNLAAWLMWKALEDGIESLESYDMVDVIENLEEAEHLLEIQDQASKIKDKHSALIDILSDKKRFSDYSMDFNVLSVSTMGIHQVLLEISFRRLVSPDPDDLEMGAEHTQTEEIMKATAEKEKLRKKNMPDSGPLVFAGHGSSAEEAKQCACKSAIIHFNTYDFTD
notes: Endogenous protein from C. elegans extract; also called T20G5.11

Columns and labels:
Test in all cases: found in two independent RDE-4 purifications, absent from controls, MudPIT (P = present)
[1] = molecular target: B2
[2] = molecular target: T1, EFT-2, EF-Tu family GTP binding protein (Caenorhabditis elegans, UniProt P29691 2-852)
T1 construct: Endogenous protein from C. elegans extract; also called F25H5.4; translation elongation factor 2

[3] = molecular target: T2, TBB-4 (Caenorhabditis elegans, UniProt P41937 1-444)
T2 construct: Endogenous protein from C. elegans extract; also called B0272.1; tubulin, Beta
T2 sequence (P41937 whole entry): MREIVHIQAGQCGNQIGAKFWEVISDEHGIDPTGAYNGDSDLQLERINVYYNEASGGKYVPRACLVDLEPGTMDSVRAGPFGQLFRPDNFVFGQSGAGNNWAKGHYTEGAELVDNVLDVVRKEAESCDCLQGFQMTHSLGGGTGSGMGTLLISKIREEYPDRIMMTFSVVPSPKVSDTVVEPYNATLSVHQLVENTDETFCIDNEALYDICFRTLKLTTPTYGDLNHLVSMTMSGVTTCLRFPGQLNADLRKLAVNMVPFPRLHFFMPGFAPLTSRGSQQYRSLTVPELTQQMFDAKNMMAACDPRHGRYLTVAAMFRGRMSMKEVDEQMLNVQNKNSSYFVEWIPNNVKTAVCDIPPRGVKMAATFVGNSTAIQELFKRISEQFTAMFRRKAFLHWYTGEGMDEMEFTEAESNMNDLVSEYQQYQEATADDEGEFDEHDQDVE

Row | Binder | binding result [1] | binding result [2] | binding result [3]
1 | B1 | binds | – | –
2 | B2 | – | binds | binds
